Results on 26 molecules are retold here after patent publication US9073974B2, “RGD-containing cyclic peptides” (The Regents of the University of California, priority 2009, dated 2015).

B1: LXW70 (peptide)
peptide: [dC]GRGD[dCit][Pro(5R-Ph)][dC]-NH2
modifications: disulfide 1-8; N-terminus assumed
SMILES: N=C(N)NCCC[C@@H]1NC(=O)CNC(=O)[C@H](N)CSSC[C@H](C(N)=O)NC(=O)[C@@H]2CC[C@H](c3ccccc3)N2C(=O)[C@@H](CCCNC(N)=O)NC(=O)[C@H](CC(=O)O)NC(=O)CNC1=O
B2: LXW72 (peptide)
peptide: [dC]GRGD[N(CH2CH2CO)Gly][Pro(5R-Ph)][dC]-NH2
modifications: disulfide 1-8; N-terminus assumed
SMILES: N=C(N)NCCC[C@@H]1NC(=O)CNC(=O)[C@H](N)CSSC[C@H](C(N)=O)NC(=O)[C@@H]2CC[C@H](c3ccccc3)N2C(=O)CN(CCC(=O)O)C(=O)[C@H](CC(=O)O)NC(=O)CNC1=O
notes: also called cGRGD-NGlu-Ppca-c
B3: LXW39 (peptide)
peptide: CGRGD[dD][dAla(4-thiazolyl)]C-NH2
modifications: disulfide 1-8; N-terminus assumed
SMILES: N=C(N)NCCC[C@@H]1NC(=O)CNC(=O)[C@@H](N)CSSC[C@@H](C(N)=O)NC(=O)[C@@H](Cc2cscn2)NC(=O)[C@@H](CC(=O)O)NC(=O)[C@H](CC(=O)O)NC(=O)CNC1=O
notes: also called CGRGDd-DTha-C
B4: LXW23 (peptide)
peptide: [dC]GRGD[dD][d(αMeV)][dC]-NH2
modifications: disulfide 1-8; N-terminus assumed
SMILES: CC(C)[C@@]1(C)NC(=O)[C@@H](CC(=O)O)NC(=O)[C@H](CC(=O)O)NC(=O)CNC(=O)[C@H](CCCNC(=N)N)NC(=O)CNC(=O)[C@H](N)CSSC[C@H](C(N)=O)NC1=O
B5: LXW68 (peptide)
peptide: [dC]GRGD[dD][dW][dC]-NH2
modifications: disulfide 1-8; N-terminus assumed
SMILES: N=C(N)NCCC[C@@H]1NC(=O)CNC(=O)[C@H](N)CSSC[C@H](C(N)=O)NC(=O)[C@@H](Cc2c[nH]c3ccccc23)NC(=O)[C@@H](CC(=O)O)NC(=O)[C@H](CC(=O)O)NC(=O)CNC1=O
B6: LXW53 (peptide)
peptide: [dC]G[NMeR]GD[dD][dV][dC]-NH2
modifications: disulfide 1-8; N-terminus assumed
SMILES: CC(C)[C@H]1NC(=O)[C@@H](CC(=O)O)NC(=O)[C@H](CC(=O)O)NC(=O)CNC(=O)[C@H](CCCNC(=N)N)N(C)C(=O)CNC(=O)[C@H](N)CSSC[C@H](C(N)=O)NC1=O
B7: LXW76 (peptide)
peptide: Isobutyryl-[dC]GRGD[dD][dV][dC]-NH2
modifications: disulfide 1-8
SMILES: CC(C)C(=O)N[C@@H]1CSSC[C@H](C(N)=O)NC(=O)[C@@H](C(C)C)NC(=O)[C@@H](CC(=O)O)NC(=O)[C@H](CC(=O)O)NC(=O)CNC(=O)[C@H](CCCNC(=N)N)NC(=O)CNC1=O
B8: LXW57 (peptide)
peptide: {Ebes(3)}-[dC]GRGD[dD][dV][dC]-NH2
modifications: disulfide 1-8
SMILES: CC(C)[C@H]1NC(=O)[C@@H](CC(=O)O)NC(=O)[C@H](CC(=O)O)NC(=O)CNC(=O)[C@H](CCCNC(=N)N)NC(=O)CNC(=O)[C@H](NC(=O)CCC(=O)NCCOCCOCCN)CSSC[C@H](C(N)=O)NC1=O

Numbered stars: 1 amine (or outer) side, 2 acyl side, 3 side chain; on linkers, the order of the positions; unused ones are H or OH. Bridge positions count the residues as written; N and C are the ends. Square brackets hold non-standard residues; d marks the D form. Primed or numbered codes have the meaning given here. Ends that are not written are not given here. Peptide text beside a SMILES is read from it. * marks the point of attachment. Ebes(3) = 2,2'-ethylenedioxy bis(ethylamine) monosuccinamide, NCCOCCOCCNC(=O)CCC(=O)*; N(CH2CH2CO)Gly = O=C(CN(CCC(=O)[*:3])[*:1])[*:2]; Pro(5R-Ph) = O=C(O)[C@@H]1CC[C@H](c2ccccc2)N1; dAla(4-thiazolyl) = N[C@H](Cc1cscn1)C(=O)O; NMeR = CN[C@@H](CCCNC(=N)N)C(=O)O; d(αMeV) = CC(C)[C@@](C)(N)C(=O)O; dCit = NC(=O)NCCC[C@@H](N)C(=O)O; Isobutyryl = CC(C)C(=O)*

αvβ3 integrin (Homo sapiens, UniProt P05106+P06756), sequence (P06756 31-889 limits assumed): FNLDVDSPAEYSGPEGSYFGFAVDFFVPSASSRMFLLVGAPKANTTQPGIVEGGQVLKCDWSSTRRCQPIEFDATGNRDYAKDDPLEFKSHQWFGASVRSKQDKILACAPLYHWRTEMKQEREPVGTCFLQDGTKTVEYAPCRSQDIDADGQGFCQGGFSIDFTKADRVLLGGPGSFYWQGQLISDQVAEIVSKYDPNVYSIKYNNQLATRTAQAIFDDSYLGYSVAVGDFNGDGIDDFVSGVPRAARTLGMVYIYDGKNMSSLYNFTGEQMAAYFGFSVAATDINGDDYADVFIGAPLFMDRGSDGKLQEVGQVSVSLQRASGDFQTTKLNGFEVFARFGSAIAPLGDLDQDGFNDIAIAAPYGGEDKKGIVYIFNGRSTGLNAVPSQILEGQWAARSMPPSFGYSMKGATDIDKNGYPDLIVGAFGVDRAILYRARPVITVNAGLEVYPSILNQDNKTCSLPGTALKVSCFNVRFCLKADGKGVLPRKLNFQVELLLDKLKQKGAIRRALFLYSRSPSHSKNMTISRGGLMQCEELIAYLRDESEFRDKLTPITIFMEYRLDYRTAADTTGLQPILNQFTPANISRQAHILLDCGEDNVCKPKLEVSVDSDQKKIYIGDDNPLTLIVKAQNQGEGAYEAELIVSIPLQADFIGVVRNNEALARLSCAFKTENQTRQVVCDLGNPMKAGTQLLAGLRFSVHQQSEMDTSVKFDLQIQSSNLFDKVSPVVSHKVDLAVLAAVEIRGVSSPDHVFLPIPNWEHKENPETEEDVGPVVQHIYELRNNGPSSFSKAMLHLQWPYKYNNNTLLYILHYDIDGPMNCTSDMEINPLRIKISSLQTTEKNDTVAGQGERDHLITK
αvβ3 integrin (Homo sapiens, UniProt P05106+P06756), sequence (P06756 891-1048 partner limits assumed): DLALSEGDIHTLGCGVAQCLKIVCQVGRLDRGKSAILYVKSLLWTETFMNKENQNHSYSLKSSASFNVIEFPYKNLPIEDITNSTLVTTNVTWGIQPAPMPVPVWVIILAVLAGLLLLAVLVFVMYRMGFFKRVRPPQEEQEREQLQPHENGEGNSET
αvβ3 integrin (Homo sapiens, UniProt P05106+P06756), sequence (P05106 27-788): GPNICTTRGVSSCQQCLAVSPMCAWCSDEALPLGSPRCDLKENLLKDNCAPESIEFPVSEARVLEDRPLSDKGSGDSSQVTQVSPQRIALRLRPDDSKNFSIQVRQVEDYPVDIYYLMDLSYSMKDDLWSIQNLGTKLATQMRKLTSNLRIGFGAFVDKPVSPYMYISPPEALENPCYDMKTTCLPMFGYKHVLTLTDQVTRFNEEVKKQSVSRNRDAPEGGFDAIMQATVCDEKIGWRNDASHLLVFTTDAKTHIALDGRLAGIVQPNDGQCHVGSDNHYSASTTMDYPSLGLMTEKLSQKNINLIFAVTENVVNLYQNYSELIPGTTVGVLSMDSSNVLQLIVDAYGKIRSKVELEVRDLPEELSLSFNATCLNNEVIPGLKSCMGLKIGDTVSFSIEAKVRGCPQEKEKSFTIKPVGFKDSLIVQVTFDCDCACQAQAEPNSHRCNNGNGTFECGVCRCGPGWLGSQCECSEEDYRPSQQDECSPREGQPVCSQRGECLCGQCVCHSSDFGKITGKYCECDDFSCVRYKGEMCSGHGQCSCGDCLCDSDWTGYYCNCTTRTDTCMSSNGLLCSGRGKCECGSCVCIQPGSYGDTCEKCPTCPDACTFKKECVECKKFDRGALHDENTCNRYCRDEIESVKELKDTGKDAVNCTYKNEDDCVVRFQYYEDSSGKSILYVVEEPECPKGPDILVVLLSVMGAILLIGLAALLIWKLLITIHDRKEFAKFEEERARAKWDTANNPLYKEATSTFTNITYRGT

In one data set the target is T1, αvβ3 integrin (human, UniProt P06756 31-1048; P05106 27-788).
T1 construct: whole, on cells; Same entry used for αvβ3-K562, U-87 MG and A375M cells; also called αvβ3-K562; αvβ3 transfected K562 cells
T1 sequence (P06756 31-1048, chain 1 of 2): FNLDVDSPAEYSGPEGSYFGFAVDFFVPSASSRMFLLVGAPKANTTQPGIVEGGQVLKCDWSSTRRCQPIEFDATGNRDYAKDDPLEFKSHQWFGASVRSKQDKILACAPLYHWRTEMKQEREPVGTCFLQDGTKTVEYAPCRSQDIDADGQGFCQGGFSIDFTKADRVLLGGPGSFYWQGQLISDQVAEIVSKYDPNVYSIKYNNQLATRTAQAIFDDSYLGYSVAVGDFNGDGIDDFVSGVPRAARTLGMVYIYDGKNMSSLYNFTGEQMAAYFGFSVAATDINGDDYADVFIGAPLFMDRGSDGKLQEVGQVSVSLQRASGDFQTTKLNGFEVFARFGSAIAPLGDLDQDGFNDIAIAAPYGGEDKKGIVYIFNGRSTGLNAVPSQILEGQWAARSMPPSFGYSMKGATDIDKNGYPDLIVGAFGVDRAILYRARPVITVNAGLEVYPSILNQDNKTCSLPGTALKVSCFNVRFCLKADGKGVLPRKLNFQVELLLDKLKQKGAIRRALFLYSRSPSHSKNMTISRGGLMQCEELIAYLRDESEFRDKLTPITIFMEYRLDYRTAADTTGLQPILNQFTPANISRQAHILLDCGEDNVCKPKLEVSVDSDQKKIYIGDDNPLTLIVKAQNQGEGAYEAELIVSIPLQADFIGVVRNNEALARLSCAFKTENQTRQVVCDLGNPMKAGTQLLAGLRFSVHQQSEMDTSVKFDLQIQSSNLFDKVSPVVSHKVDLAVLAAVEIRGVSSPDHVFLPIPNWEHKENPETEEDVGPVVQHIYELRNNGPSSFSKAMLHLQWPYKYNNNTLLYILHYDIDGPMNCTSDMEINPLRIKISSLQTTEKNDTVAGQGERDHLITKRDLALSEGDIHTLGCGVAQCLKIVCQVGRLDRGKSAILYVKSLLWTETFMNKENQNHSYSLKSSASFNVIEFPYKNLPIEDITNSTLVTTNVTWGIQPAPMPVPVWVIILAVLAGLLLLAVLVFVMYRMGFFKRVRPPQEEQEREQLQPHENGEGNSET
T1 sequence (P05106 27-788, chain 2 of 2): as the sequence (P05106 27-788) above
As to the kind of experiment: flow cytometry, competition with biotinylated LXW7 on αvβ3-K562 cells; + = IC50 >10 µM.
Details: not given
For orientation: In flow cytometry, cells or beads pass a laser one at a time.
Turning to B1, the half-maximal inhibitory concentration (IC50) (usually the concentration that gives 50% inhibition) is more than 10000 nM.

On to B2, for which the IC50 is more than 10000 nM.

For the molecule B3, the IC50 is more than 10000 nM. On to B4, for which the IC50 is more than 10000 nM.

The next data set addresses αvβ3 integrin (Homo sapiens, UniProt P05106+P06756). As to the kind of experiment: Inhibition of FITC-Echistatin binding to αvβ3-K562 cells (flow cytometry). The arrangement: expressed in transfected cells; host or cells: K562 (gift of Dr. Yoshikazu Takada, UC Davis). The following applies: LXW1-8: inhibition of binding of FITC-Echistatin against αvβ3-K562; class symbols; read-out: IC50. The protocol: The samples were analyzed with Coulter XL-MCL flow cytometry. The histogram and mean fluorescence intensity (MFI) were determined. The apparent Kd, IC50 were calculated using Graph Prism software (≦www.graphpad.com≧).
Consider `N=C(N)NCCC[C@@H]1NC(=O)CNC(=O)[C@H](N)CSSC[C@H](C(N)=O)NC(=O)[C@@H](Cc2ccccc2)NC(=O)[C@@H](CO)NC(=O)[C@H](CC(=O)O)NC(=O)CNC1=O` [LXW1, cGRGDsfc] (H-[dC]GRGD[dS][dF][dC]-NH2; disulfide 1-8), for which the half-maximal inhibitory concentration (IC50) was in the range of 1 to 10 µM.

As to `N=C(N)NCCC[C@@H]1NC(=O)CNC(=O)[C@H](N)CSSC[C@H](C(N)=O)NC(=O)[C@@H](Cc2ccccc2)NC(=O)[C@@H](CC(=O)O)NC(=O)[C@H](CC(=O)O)NC(=O)CNC1=O` [LXW2, cGRGDdfc] (H-[dC]GRGD[dD][dF][dC]-NH2; disulfide 1-8), the IC50 is 1 to 10 µM. With `N=C(N)NCCC[C@@H]1NC(=O)CNC(=O)[C@H](N)CSSC[C@H](C(N)=O)NC(=O)[C@@H](CCC(=O)O)NC(=O)[C@@H](CO)NC(=O)[C@H](CC(=O)O)NC(=O)CNC1=O` [LXW3, cGRGDsec] (H-[dC]GRGD[dS][dE][dC]-NH2; disulfide 1-8), the half-maximal inhibitory concentration (IC50) was less than 1 µM. For the molecule `N=C(N)NCCC[C@@H]1NC(=O)CNC(=O)[C@H](N)CSSC[C@H](C(N)=O)NC(=O)[C@@H](CO)NC(=O)[C@@H](CC(=O)O)NC(=O)[C@H](CC(=O)O)NC(=O)CNC1=O` [LXW5, cGRGDdsc] (H-[dC]GRGD[dD][dS][dC]-NH2; disulfide 1-8), the IC50 fell in the range of 1 to 10 µM.

Still in this data set, the particulars now being: LXW1-8 series.
On to `NCCCC[C@@H]1NC(=O)CNC(=O)[C@H](N)CSSC[C@H](C(N)=O)NC(=O)[C@@H](CCC(=O)O)NC(=O)[C@@H](CO)NC(=O)[C@H](CC(=O)O)NC(=O)CNC1=O` [LXW4, cGKGDsec] (H-[dC]GKGD[dS][dE][dC]-NH2; disulfide 1-8), for which the “binding affinity compared with LXW7 or the Arg parent, in words” value is recorded as “decreased the affinity”. The same measure, in the same setting: then `NCCCC[C@@H]1NC(=O)CNC(=O)[C@H](N)CSSC[C@H](C(N)=O)NC(=O)[C@@H](CO)NC(=O)[C@@H](CC(=O)O)NC(=O)[C@H](CC(=O)O)NC(=O)CNC1=O` [LXW6, cGKGDdsc] (H-[dC]GKGD[dD][dS][dC]-NH2; disulfide 1-8), with “decreased the affinity”.

For the molecule `CC(C)[C@H]1NC(=O)[C@@H](CC(=O)O)NC(=O)[C@H](CC(=O)O)NC(=O)CNC(=O)[C@H](CCCCN)NC(=O)CNC(=O)[C@H](N)CSSC[C@H](C(N)=O)NC1=O` [LXW8, cGKGDdvc] (H-[dC]GKGD[dD][dV][dC]-NH2; disulfide 1-8), the “binding affinity compared with LXW7 or the Arg parent, in words” value was “decreased the affinity”.

Still in this data set, the particulars now being: biotinylated peptides; read-out: IC50 (μM) Inhibit FITC-Echistatin binding with αvβ3-K562.
In the case of `N=C(N)NCCC[C@@H]1NC(=O)[C@H](CCCCNC(=O)CCC(=O)NCCOCCOCCNC(=O)CCC(=O)N[C@@H](CCCCNC(=O)CCCC[C@@H]2SC[C@@H]3NC(=O)N[C@@H]32)C(N)=O)NC(=O)[C@@H](Cc2ccccc2)NC(=O)[C@H](CC(=O)O)NC(=O)CNC1=O` [cyclo (RGDfK)-Bio, Biotinylated Cyclo(RGDfK), reference compound], the IC50 turned out to be 1.37 ± 0.2 µM.

The test system of another data set is U-87 MG xenograft. The data set can be described thus: In vivo and ex vivo near infra red fluorescent imaging, U-87 MG xenograft. The arrangement: species or system nude mice. The note with it: complex of Streptavidin-Cy5.5 with biotinylated peptide, 6 hrs after tail vein injection. The procedure: Animal studies were performed according to a protocol approved by IACUC of the University of California, Davis.
Animals were placed on a sheet of transparency in different position. […] Images were captured with a CCD camera set at F stop=0, FOV=150, and FP=0. Six hours post injection of imaging complex, the mice were conducted in vivo imaging, then were sacrificed and organs were excised for ex vivo imaging.
Consider `N=C(N)NCCC[C@@H]1NC(=O)[C@H](CCCCN)NC(=O)[C@@H](Cc2ccccc2)NC(=O)[C@H](CC(=O)O)NC(=O)CNC1=O` [cyclo (RGDfK), cyclo(RGDfK)], for which the “liver uptake, ex vivo imaging” value is given as “reverse” and the “tumor uptake, ex vivo imaging” value is reported as “reverse”. Take `N=C(N)NCCC[C@@H]1NC(=O)[C@H](CCCCN)NC(=O)[C@@H](Cc2ccc(O)cc2)NC(=O)[C@H](CC(=O)O)NC(=O)CNC1=O` [cyclo (RGDyK), cyclo(RGDyK)]: the “liver uptake, ex vivo imaging” value is listed as “reverse” and the “tumor uptake, ex vivo imaging” value was “reverse”. Consider `N=C(N)NCCC[C@@H]1NC(=O)[C@H](CCC(=O)O)NC(=O)[C@@H](Cc2ccccc2)NC(=O)[C@H](CC(=O)O)NC(=O)CNC1=O` [cyclo(RGDfE)], for which the “liver uptake, ex vivo imaging” value is reported as “reverse” and the “tumor uptake, ex vivo imaging” value is “reverse”.

A further data set deals with T1, αvβ3 integrin. As to the kind of experiment: flow cytometry, competition with biotinylated LXW7 on αvβ3-K562 cells; +++ = IC50 <1 µM.
Details: not given
In the case of {4‑(trifluoromethyl)benzoyl}-[dC]GRGD[dD][dV][dC]-NH2 (disulfide 1-8) [LXW85], the 50% inhibitory concentration (IC50) is less than 1000 nM. On the same count and under the same terms, then B5, with less than 1000 nM; and {3‑phenyl propionyl}-[dC]GRGD[dD][dV][dC]-NH2 (disulfide 1-8) [LXW80], with less than 1000 nM.

For the molecule {2‑methylthiazole‑4‑carbonyl}-[dC]GRGD[dD][dV][dC]-NH2 (disulfide 1-8) [LXW86], the half-inhibitory concentration (IC50) is less than 1000 nM. Molecule {2‑naphthoyl}-[dC]GRGD[dD][dV][dC]-NH2 (disulfide 1-8) [LXW89] had an IC50 of less than 1000 nM.

Take {biphenyl‑4‑carbonyl}-[dC]GRGD[dD][dV][dC]-NH2 (disulfide 1-8) [LXW84]: the IC50 was less than 1000 nM. On the same count and under the same terms, then B6, with less than 1000 nM; and B7, with less than 1000 nM; and B8, with less than 1000 nM. Take {3‑amino propanoyl}-[dC]GRGD[dD][dV][dC]-NH2 (disulfide 1-8) [LXW56]: the IC50 was less than 1000 nM.

Molecule {3,5‑dihydroxy benzoyl}-[dC]GRGD[dD][dV][dC]-NH2 (disulfide 1-8) [LXW83] registered a 50% inhibitory concentration (IC50) of less than 1000 nM.
